In the Immune Epitope Database (IEDB):

Tests used:
HLA-B*15:03 = assay: IEDB peptide-MHC binding, purified MHC/competitive/radioactivity; filed as Kd, often an IC50 or EC50 that approximates it; ≥ and ≤ were set here for values at or beyond the usual limits of such assays; details: source organism: Vaccinia virus WR
HLA-A*69:01 [1] = assay: IEDB peptide-MHC binding, purified MHC/direct/fluorescence; filed as Kd, often an IC50 or EC50 that approximates it; ≥ and ≤ were set here for values at or beyond the usual limits of such assays
HLA-A*26:01 [2] = assay: as above
HLA-B*08:01 [3] = assay: as above
HLA-A*31:01 [4] = assay: as above
HLA-A*01:01 [5] = assay: as above
HLA-A*02:01 [6] = assay: as above
HLA-B*35:01 [7] = assay: as above
HLA-B*27:05 [8] = assay: as above
HLA-B*15:01 [9] = assay: as above
HLA-B*58:01 [10] = assay: as above
HLA-A*11:01 = assay: as above
HLA-B*07:02 [11] = assay: as above
HLA-A*03:01 [12] = assay: as above
HLA-A*02:03 = assay: as above; details: source organism: Orthohantavirus tulaense
HLA-A*02:16 = assay: as above; details: source organism: Orthohantavirus tulaense
HLA-A*02:12 = assay: as above; details: source organism: Orthohantavirus tulaense
HLA-A*02:19 = assay: as above; details: source organism: Orthohantavirus tulaense
HLA-A*68:02 = assay: as above; details: source organism: Orthohantavirus tulaense
HLA-A*02:11 = assay: as above; details: source organism: Orthohantavirus tulaense
HLA-A*69:01 [13] = assay: IEDB peptide-MHC binding, purified MHC/competitive/fluorescence; filed as Kd, often an IC50 or EC50 that approximates it; ≥ and ≤ were set here for values at or beyond the usual limits of such assays; details: source organism: Orthohantavirus tulaense
HLA-A*26:01 [14] = assay: as above; details: source organism: Orthohantavirus tulaense
HLA-B*46:01 = assay: as above
HLA-A*02:01 [15] = assay: as above; details: source organism: Orthohantavirus tulaense
HLA-B*57:01 = assay: as above; details: source organism: Orthohantavirus tulaense
HLA-B*35:01 [16] = assay: as above
HLA-B*27:03 = assay: as above; details: source organism: Orthohantavirus tulaense
HLA-B*58:01 [17] = assay: as above
HLA-B*08:01 [18] = assay: as above; details: source organism: Yersinia pestis Nepal516
HLA-A*31:01 [19] = assay: as above; details: source organism: Yersinia pestis Nepal516
HLA-A*03:01 [20] = assay: as above
HLA-B*27:05 [21] = assay: as above
HLA-A*32:01 = assay: IEDB peptide-MHC binding, purified MHC/competitive/radioactivity; filed as Kd, often an IC50 or EC50 that approximates it; ≥ and ≤ were set here for values at or beyond the usual limits of such assays; details: source organism: Vaccinia virus WR
HLA-B*15:01 [22] = assay: as above; details: source organism: Vaccinia virus WR
HLA-B*07:02 [23] = assay: IEDB peptide-MHC binding, purified MHC/competitive/fluorescence; filed as Kd, often an IC50 or EC50 that approximates it; ≥ and ≤ were set here for values at or beyond the usual limits of such assays
HLA-B*45:06 = assay: as above; details: source organism: Yersinia pestis Nepal516
HLA-B*51:01 = assay: as above; details: source organism: Yersinia pestis Nepal516
HLA-B*83:01 = assay: as above; details: source organism: Yersinia pestis Nepal516
HLA-B*15:42 = assay: as above; details: source organism: Yersinia pestis Nepal516
HLA-A*01:01 [24] = assay: as above; details: source organism: Salmonella enterica subsp. enterica serovar Typhi
HLA-B*15:01 [25] = assay: as above; details: source organism: Salmonella enterica subsp. enterica serovar Typhi
HLA-B*08:01 [26] = assay: IEDB peptide-MHC binding, purified MHC/competitive/radioactivity; filed as Kd, often an IC50 or EC50 that approximates it; ≥ and ≤ were set here for values at or beyond the usual limits of such assays; details: source organism: Vaccinia virus WR
HLA-A*30:01 = assay: as above; details: source organism: Vaccinia virus WR
HLA-B*40:01 = assay: IEDB peptide-MHC binding, purified MHC/direct/fluorescence; filed as Kd, often an IC50 or EC50 that approximates it; ≥ and ≤ were set here for values at or beyond the usual limits of such assays; details: source organism: Giardia lamblia ATCC 50803
HLA-B*44:02 = assay: as above; details: source organism: Giardia lamblia ATCC 50803
[27] = source organism: Vibrio vulnificus
[28] = source organism: Orthohantavirus tulaense
[29] = source organism: Yersinia pestis Nepal516
[30] = source organism: Mycobacterium tuberculosis F11
[31] = source organism: Salmonella enterica subsp. enterica serovar Typhi
[32] = source organism: Giardia lamblia ATCC 50803

**Q.** How did the Kd (HLA-B*15:03) turn out when AKTSTLIFF was run?
**A.** 1.56 nM

**Q.** For ALVITINYF, which Kd (HLA-B*15:03) is on record?
**A.** 666 nM

**Q.** Which results are given for EEVWRDPYL?
**A.** Kd (HLA-A*69:01 [1]; [27]): ≥ 20000 nM; Kd (HLA-A*26:01 [2]; [27]): ≥ 20000 nM; Kd (HLA-B*08:01 [3]; [27]): ≥ 20000 nM; Kd (HLA-A*31:01 [4]; [27]): ≥ 20000 nM; Kd (HLA-A*01:01 [5]; [27]): ≥ 20000 nM; Kd (HLA-A*02:01 [6]; [27]): ≥ 20000 nM; Kd (HLA-B*35:01 [7]; [27]): 23.9 nM; Kd (HLA-B*27:05 [8]; [27]): ≥ 20000 nM; Kd (HLA-B*15:01 [9]; [27]): ≥ 20000 nM; Kd (HLA-B*58:01 [10]; [27]): ≥ 20000 nM; Kd (HLA-A*11:01; [27]): ≥ 20000 nM; Kd (HLA-B*07:02 [11]; [27]): ≥ 20000 nM; Kd (HLA-A*03:01 [12]; [27]): ≥ 20000 nM

**Q.** FAAVEGIFF was tested. Which Kd (HLA-B*15:03) did it give?
**A.** 309 nM

**Q.** For FGAAVSLLF, which Kd (HLA-A*02:03) is on record?
**A.** ≥ 20000 nM

**Q.** And the Kd (HLA-A*02:16)?
**A.** ≥ 20000 nM

**Q.** What about the Kd (HLA-A*02:12) of the same sequence?
**A.** ≥ 20000 nM

**Q.** And the Kd (HLA-A*02:19)?
**A.** ≥ 20000 nM

**Q.** What about the Kd (HLA-A*68:02) of the same sequence?
**A.** ≥ 20000 nM

**Q.** What about the Kd (HLA-A*02:11) of the same sequence?
**A.** ≥ 20000 nM

**Q.** What about the Kd (HLA-B*15:01 [9]; source organism: Orthohantavirus andesense) of the same sequence?
**A.** 53.6 nM

**Q.** What about the Kd (HLA-A*03:01 [12]; [28]) of the same sequence?
**A.** ≥ 20000 nM

**Q.** What about the Kd (HLA-A*69:01 [13]) of the same sequence?
**A.** ≥ 20000 nM

**Q.** What about the Kd (HLA-A*26:01 [14]) of the same sequence?
**A.** ≥ 20000 nM

**Q.** What about the Kd (HLA-B*46:01; [28]) of the same sequence?
**A.** ≥ 20000 nM

**Q.** What about the Kd (HLA-A*02:01 [15]) of the same sequence?
**A.** ≥ 20000 nM

**Q.** What about the Kd (HLA-B*57:01) of the same sequence?
**A.** ≥ 20000 nM

**Q.** What about the Kd (HLA-B*35:01 [16]; [28]) of the same sequence?
**A.** 2.7 nM

**Q.** What about the Kd (HLA-B*27:03) of the same sequence?
**A.** ≥ 20000 nM

**Q.** What about the Kd (HLA-B*58:01 [17]; [28]) of the same sequence?
**A.** 1.3 nM

**Q.** With FIRLRFAFK as the sequence, how does the Kd (HLA-B*08:01 [18]) read?
**A.** ≥ 20000 nM

**Q.** What about the Kd (HLA-A*31:01 [19]) of the same sequence?
**A.** 17.3 nM

**Q.** What about the Kd (HLA-A*03:01 [20]; [29]) of the same sequence?
**A.** ≥ 20000 nM

**Q.** How did the Kd (HLA-A*01:01 [5]; source organism: Mycobacterium tuberculosis) turn out when FSIPVTFSY was run?
**A.** 316 nM

**Q.** And the Kd (HLA-B*46:01; [30])?
**A.** 68.6 nM

**Q.** What about the Kd (HLA-B*35:01 [16]; [30]) of the same sequence?
**A.** ≤ 0.1 nM

**Q.** What about the Kd (HLA-B*58:01 [17]; [30]) of the same sequence?
**A.** 0.7 nM

**Q.** GRVTVSTKR was tested. Which Kd (HLA-B*27:05 [21]; source organism: Influenza A virus) did it give?
**A.** 553 nM

**Q.** Which Kd (HLA-B*15:03) does the source give for ILAPNPNRF here?
**A.** 26.1 nM

**Q.** Which Kd (HLA-B*15:03) does the source give for ILVNQYSHM here?
**A.** 37.4 nM

**Q.** With KIYNVTNPF as the sequence, how does the Kd (HLA-B*15:03) read?
**A.** 7.54 nM

**Q.** And the Kd (HLA-A*32:01)?
**A.** 4.25 nM

**Q.** What about the Kd (HLA-B*15:01 [22]) of the same sequence?
**A.** 2.72 nM

**Q.** How did the Kd (HLA-B*07:02 [23]; source organism: Influenza A virus (A/parakeet/Narita/92A/98(H9N2))) turn out when LPACVYGLAV was run?
**A.** 39.4 nM

**Q.** Which results are given for MPAIFFSIV?
**A.** Kd (HLA-B*45:06): ≥ 5000 nM; Kd (HLA-B*51:01): 1320 nM; Kd (HLA-B*83:01): 642 nM; Kd (HLA-B*35:01 [16]; [29]): 1.2 nM; Kd (HLA-B*15:42): ≥ 5000 nM; Kd (HLA-B*07:02 [23]; [29]): 84.1 nM

**Q.** With MTAAQIRRY as the sequence, how does the Kd (HLA-A*01:01 [24]) read?
**A.** 243 nM

**Q.** And the Kd (HLA-B*15:01 [25])?
**A.** 168 nM

**Q.** What about the Kd (HLA-B*58:01 [17]; [31]) of the same sequence?
**A.** ≥ 20000 nM

**Q.** What about the Kd (HLA-A*03:01 [20]; [31]) of the same sequence?
**A.** 3500 nM

**Q.** Which Kd (HLA-B*15:03) does the source give for TSNWTGNYF here?
**A.** 894 nM

**Q.** And the Kd (HLA-A*32:01)?
**A.** 11400 nM

**Q.** What about the Kd (HLA-B*08:01 [26]) of the same sequence?
**A.** 15600 nM

**Q.** What about the Kd (HLA-B*15:01 [22]) of the same sequence?
**A.** 7730 nM

**Q.** And the Kd (HLA-A*30:01)?
**A.** 2270 nM

**Q.** What does the source list for YQNHGFVSF?
**A.** Kd (HLA-B*15:03): 2.43 nM; Kd (HLA-A*32:01): 358 nM; Kd (HLA-B*15:01 [22]): 0.173 nM

**Q.** Which results are given for YQYGDNLIL?
**A.** Kd (HLA-A*69:01 [1]; [32]): ≥ 20000 nM; Kd (HLA-A*26:01 [2]; [32]): ≥ 20000 nM; Kd (HLA-B*08:01 [3]; [32]): ≥ 20000 nM; Kd (HLA-A*31:01 [4]; [32]): ≥ 20000 nM; Kd (HLA-A*01:01 [5]; [32]): ≥ 20000 nM; Kd (HLA-A*02:01 [6]; [32]): 22.1 nM; Kd (HLA-B*35:01 [7]; [32]): 410 nM; Kd (HLA-B*40:01): 77.7 nM; Kd (HLA-B*27:05 [8]; [32]): 430 nM; Kd (HLA-B*15:01 [9]; [32]): 89.2 nM; Kd (HLA-B*58:01 [10]; [32]): ≥ 20000 nM; Kd (HLA-A*11:01; [32]): ≥ 20000 nM; Kd (HLA-B*07:02 [11]; [32]): ≥ 20000 nM; Kd (HLA-B*44:02): ≥ 20000 nM; Kd (HLA-A*03:01 [12]; [32]): ≥ 20000 nM

**Q.** How did the Kd (HLA-B*27:05 [21]; source organism: Influenza A virus (A/Memphis/1/1978(H1N1))) turn out when YRLFKHGLK was run?
**A.** 217 nM
